Measured values taken from doi:10.1101/2022.04.11.487922.
Changes are numbered by the printed parent chain. Read-outs that look alike come from different tables or passages of the source.

What was measured:
[1] = target: T1, p50 (in p50/RelA);RelA RHD (in p50/RelARHD) (Mus musculus;Mus musculus, UniProt P25799;Q04207 39-350;19-321, |); experiment: fluorescence anisotropy
[2] = target: T2, p50 (in p50/RelA);RelA FL (in p50/RelAFL) (Mus musculus;Mus musculus, UniProt P25799;Q04207 39-350;19-549, |); experiment: fluorescence anisotropy
T2 sequence (P25799 39-350, chain 1 of 2): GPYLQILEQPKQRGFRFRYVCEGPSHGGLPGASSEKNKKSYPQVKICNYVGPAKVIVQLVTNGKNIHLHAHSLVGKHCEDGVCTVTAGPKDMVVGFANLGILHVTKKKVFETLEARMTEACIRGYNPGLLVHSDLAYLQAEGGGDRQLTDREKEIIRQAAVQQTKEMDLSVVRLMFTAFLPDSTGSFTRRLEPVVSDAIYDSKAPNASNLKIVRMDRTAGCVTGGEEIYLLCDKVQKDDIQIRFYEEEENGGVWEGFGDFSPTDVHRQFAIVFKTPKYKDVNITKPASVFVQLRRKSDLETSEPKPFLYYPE
T2 sequence (Q04207 19-549, chain 2 of 2): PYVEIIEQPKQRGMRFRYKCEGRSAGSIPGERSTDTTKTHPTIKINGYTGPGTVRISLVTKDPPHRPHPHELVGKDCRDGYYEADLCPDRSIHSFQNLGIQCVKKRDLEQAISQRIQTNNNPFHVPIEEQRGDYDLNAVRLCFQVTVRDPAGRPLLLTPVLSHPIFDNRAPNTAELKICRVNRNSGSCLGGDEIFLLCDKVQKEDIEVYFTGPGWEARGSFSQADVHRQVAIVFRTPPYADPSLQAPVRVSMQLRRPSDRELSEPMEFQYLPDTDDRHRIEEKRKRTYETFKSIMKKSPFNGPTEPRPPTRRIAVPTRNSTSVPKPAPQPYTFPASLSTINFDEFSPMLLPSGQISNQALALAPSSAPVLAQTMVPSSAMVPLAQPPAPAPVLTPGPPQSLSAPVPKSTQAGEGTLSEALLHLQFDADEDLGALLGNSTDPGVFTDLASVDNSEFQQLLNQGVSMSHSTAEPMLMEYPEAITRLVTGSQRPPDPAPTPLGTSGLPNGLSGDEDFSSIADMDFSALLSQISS

[3] = target: T1, p50 (in p50/RelA);RelA RHD (in …); experiment: EMSA
[4] = target: T2, p50 (in p50/RelA);RelA FL (in …); experiment: EMSA
[5] = target: T1, p50 (in p50/RelA);RelA RHD (in …); experiment: EMSA; remark: listed apart in the source
[6] = target: T2, p50 (in p50/RelA);RelA FL (in …); experiment: EMSA; remark: listed apart in the source
[7] = target: T1, p50 (in p50/RelA);RelA RHD (in …); experiment: fluorescence anisotropy; remark: listed apart in the source
[8] = target: T2, p50 (in p50/RelA);RelA FL (in …); experiment: fluorescence anisotropy; remark: listed apart in the source
[9] = target: T1, p50 (in p50/RelA);RelA RHD (in …); experiment: fluorescence anisotropy; remark: listed apart in the source
[10] = target: T2, p50 (in p50/RelA);RelA FL (in …); experiment: fluorescence anisotropy; remark: listed apart in the source
[11] = target: T1, p50 (in p50/RelA);RelA RHD (in …); experiment: fluorescence anisotropy; remark: listed apart in the source
[12] = target: T2, p50 (in p50/RelA);RelA FL (in …); experiment: fluorescence anisotropy; remark: listed apart in the source
[13] = target: T1, p50 (in p50/RelA);RelA RHD (in …); experiment: EMSA; remark: listed apart in the source
[14] = target: T2, p50 (in p50/RelA);RelA FL (in …); experiment: EMSA; remark: listed apart in the source
[15] = target: T1, p50 (in p50/RelA);RelA RHD (in …); experiment: EMSA; remark: listed apart in the source
[16] = target: T2, p50 (in p50/RelA);RelA FL (in …); experiment: EMSA; remark: listed apart in the source
[17] = target: T2, p50 (in p50/RelA);RelA FL (in …); experiment: EMSA; remark: listed apart in the source
[18] = target: T1, p50 (in p50/RelA);RelA RHD (in …); experiment: EMSA; remark: listed apart in the source

T1 sequence (P25799 39-350, chain 1 of 2): as the sequence (P25799 39-350, chain 1 of 2) above
T1 sequence (Q04207 19-321, chain 2 of 2): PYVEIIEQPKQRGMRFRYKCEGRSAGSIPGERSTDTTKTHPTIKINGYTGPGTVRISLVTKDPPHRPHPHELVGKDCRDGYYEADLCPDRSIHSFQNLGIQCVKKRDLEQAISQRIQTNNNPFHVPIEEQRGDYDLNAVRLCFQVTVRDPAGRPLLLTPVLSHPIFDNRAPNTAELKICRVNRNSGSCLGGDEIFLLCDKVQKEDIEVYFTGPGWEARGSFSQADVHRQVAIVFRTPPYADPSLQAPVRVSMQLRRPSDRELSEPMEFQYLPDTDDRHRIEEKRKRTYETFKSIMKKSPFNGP

B1: HIV LTR tandem dsDNA (anisotropy) (dsDNA)
DNA 1: CAAGGGACTTTCCGCTGGGGACTTTCCAGG
DNA 2: CCTGGAAAGTCCCCAGCGGAAAGTCCCTTG
modifications: 5' 5AmMC6
Kd [1]: 1.7 ± 0.4 nM
Kd [2]: 1.3 ± 0.4 nM

B2: HIV LTR, site 2 scrambled (dsDNA)
DNA 1: AAGGGACTTTCCGCTGGTCGACTGTCAGGGAGG
DNA 2: CCTCCCTGACAGTCGACCAGCGGAAAGTCCCTT
binding result [3]: binds
binding result [4]: binds

B3: NFKBIA, site 2 scrambled (dsDNA)
DNA 1: CTGACTGGCTTGGAAATTCCCCGAGCCTGACCCCGCCCCAAGCACTGACACAGCCAGCG
DNA 2: CGCTGGCTGTGTCAGTGCTTGGGGCGGGGTCAGGCTCGGGGAATTTCCAAGCCAGTCAG
binding result [5]: binds
binding result [6]: binds

B4: Random hairpin (structured_DNA)
DNA: GTAGACGTGCTCCCCCAGCACGTCTAC
modifications: 5' 5AmMC6
Kd [7]: 1500 ± 100 nM
Kd [8]: 130 ± 40 nM

B5: NFKBIA tandem dsDNA (anisotropy), forward label (dsDNA)
DNA 1: CTTGGAAATTCCCCGAGCCTGACCCCGCCCCAGAGAAATCCCCAG
DNA 2: CTGGGGATTTCTCTGGGGCGGGGTCAGGCTCGGGGAATTTCCAAG
modifications: 5' 5AmMC6
Kd [9]: 1.7 ± 0.5 nM
Kd [10]: 1.5 ± 0.7 nM

B6: NFKBIA tandem dsDNA (anisotropy), reverse label (dsDNA)
DNA 1: B5 DNA 1
DNA 2: B5 DNA 2
modifications: 5' 5AmMC6
Kd [11]: 10 ± 2 nM
Kd [12]: 5.1 ± 0.4 nM

B7: HIV LTR, site 1 scrambled (dsDNA)
DNA 1: AAGTCGACTGTCGCTGGGGACTTTCCAGGGAGG
DNA 2: CCTCCCTGGAAAGTCCCCAGCGACAGTCGACTT
binding result [13]: binds
binding result [14]: binds

B8: HIV LTR tandem kB 33 bp (EMSA) (dsDNA)
DNA 1: AAGGGACTTTCCGCTGGGGACTTTCCAGGGAGG
DNA 2: CCTCCCTGGAAAGTCCCCAGCGGAAAGTCCCTT
binding result [15]: binds
binding result [16]: binds

B9: NFKBIA tandem kB 59 bp (EMSA) (dsDNA)
DNA 1: CTGACTGGCTTGGAAATTCCCCGAGCCTGACCCCGCCCCAGAGAAATCCCCAGCCAGCG
DNA 2: CGCTGGCTGGGGATTTCTCTGGGGCGGGGTCAGGCTCGGGGAATTTCCAAGCCAGTCAG
binding result [17]: binds
binding result [18]: binds

B10: NFKBIA, site 1 scrambled (dsDNA)
DNA 1: B9 DNA 1 with G12A, A14T, A15C, T17C, T18G, C19T, C21A
DNA 2: B9 DNA 2 with G39T, G41A, A42C, A43G, T45G, T46A, C48T
binding result [5]: binds
binding result [6]: binds
